This experiment addresses SARS-CoV-2 3CL^pro enzyme (Recombinant derived from Escherichia coli, ab277614, ABCAM; SEQ ID NO:2) (SARS-CoV-2) (UniProt P0DTC1).

On to “3CL^pro specific antibody (Rabbit-derived, NBP3-07062, Novus Biologicals; binding to SEQ ID NO:3)”, for which the time to maximal binding was determined as 20 s.

For the origin of these results see patent publication US20240361320A1.
